Consider two molecules from US6162627, “Methods of identifying inhibitors of sensor histidine kinases through rational drug design” (University of Medicine and Dentistry of New Jersey, dated 2000).

Data set [1] deals with EnvZ(C)(223-289) (Escherichia coli).
Data set [2] concerns the molecule itself. Kind of data set: gel filtration (21.6 kDa) and dynamic light scattering (26.5 kDa) against a calculated molecular weight of 17.6 kDa.

Molecule EnvZ(C)(290-450) (enzyme) had a phosphorylation activity on sub-domain A against that of H6-EnvZ(C)H1 in data set [1] of 5%.

B1: EnvZ(C)(290-450) (enzyme)
chain: TGQEMPMEMADLNAVLGEVIAAESGYEREIETALYPGSIEVKMHPLSIKRAVANMVVNAARYGNGWIKVSSGTEPNRAWFQVEDDGPGIAPEQRKHLFQPFVRGDSARTISGTGLGLAIVQRIVDNHNGMLELGTSERGGLSIRAWLPVPVTRAQGTTKEG
In the case of B1, the binding result in data set [2] was “no binding”.
